Biological target: GAL4 DBD-RXRalpha LBD (Saccharomyces cerevisiae / Homo sapiens, UniProt P04386;P19793 P04386:1-147,P19793:203-462)
Experiment: cell_activity; fold response to 100 nM LG69; 4 copies UASG TK-LUC, CV-1 cells
Conditions: tags: GAL4 DBD (1-147) N-terminal fusion

Chain of GAL4 DBD-RXRalpha LBD (P04386 1-147, chain 1 of 2): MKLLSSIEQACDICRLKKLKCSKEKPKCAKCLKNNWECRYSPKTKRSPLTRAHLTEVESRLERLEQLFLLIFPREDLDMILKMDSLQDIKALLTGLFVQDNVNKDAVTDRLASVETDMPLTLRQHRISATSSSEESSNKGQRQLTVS
Chain of GAL4 DBD-RXRalpha LBD (P19793 203-462, chain 2 of 2): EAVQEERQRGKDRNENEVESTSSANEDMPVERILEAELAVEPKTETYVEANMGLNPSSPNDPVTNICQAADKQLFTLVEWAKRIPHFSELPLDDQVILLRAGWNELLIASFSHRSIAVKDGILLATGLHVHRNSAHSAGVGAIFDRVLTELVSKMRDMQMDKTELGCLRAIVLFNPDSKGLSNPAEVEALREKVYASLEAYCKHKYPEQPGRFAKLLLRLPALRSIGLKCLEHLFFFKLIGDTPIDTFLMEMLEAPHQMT

B1: UASG x4 (dsDNA)
DNA 1: CGACGGAGTACTGTCCTCCGAGCT
DNA 2: AGCTCGGAGGACAGTACTCCGTCG
Binder B1 has an activity of 69 fold.
